Experimental data from patent US20260042834A1 (HBM ALPHA THERAPEUTICS, published 2026).
Substitutions are numbered along the chain they refer to. Where two headings read alike, the source gives them in different places.

Columns and labels:
Test in all cases: cell-based or functional assay
[1] = molecular target: T1, corticotropin-releasing hormone (CRH) peptide (human and mouse, not fully specified)
T1 peptide: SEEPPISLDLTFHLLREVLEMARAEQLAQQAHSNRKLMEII

[2] = molecular target: T2, corticotropin-releasing hormone (CRH) peptide (human and mouse (same sequence), not fully specified)
T2 peptide: T1 peptide

[3] = molecular target: T2, corticotropin-releasing hormone (CRH) …

B1: PR006669 (antibody, human IgG1, kappa, V domains shown)
VH: EVQLVESGGGLVQPGGSLRLSCAASGFTFSDNWMSWVRQAPGKGLEWVANIKQDGSENYYVDSVKGRFTISRDNAKNSLYLQMNSLRAEDTAVYYCSRGLALWGWGQGTLVTVSS
VL: DIVMTHSPLSLPVTPGDPASISCRSSQSLLHSTGYNYLDWYLQKPGQSPQLLIYLGSNRASGVPDRFSGSGSGTDFTLKFIRVEAEDVGVYYCMQALQTPYTFGQGTKLEIKR
hCRHR1 Reporter IC50 [1]: 7.38 nM

B2: PR302309-13 (antibody, human IgG1, kappa, V domains shown)
VH: QVQLVQSGSELKKPGASVKVSCKASGYTFTNYGMNWVRQAPGQGLEWMGWINTYTGEPIYTDDFKGRFVFSLDTSVSTAYLQISSLKAEDTAVYYCARSTMITTGGVFAYWGQGTLVTVSS
VL: DVLMAQTPLSLPVSLGDQASISCRSSQTIVHSDGNTYLEWYLQKPGQSPKLLIYKVSNRFSGVPDRFSGSGSGTDFTLKISRVEAEDLGVYYCFQGSHVPWTFGGGTKLEIKR
hCRHR1 Luciferase Reporter Assay IC50 [2]: 7.23 nM

B3: PR302309-15 (antibody, human IgG1, kappa, V domains shown)
VH: QVQLVQSGAEVKKPGASVKVSCKASGYTFTNYGMNWVRQAPGQRLEWMGWINTYTGEPIYTDDFKGRVTITRDTSASTAYMELSSLRSEDTAVYYCARSTMITTGGVFAYWGQGTLVTVSS
VL: B2 VL
hCRHR1 Luciferase Reporter Assay IC50 [2]: 10.5 nM

B4: PR302309-14 (antibody, human IgG1, kappa, V domains shown)
VH: B2 VH with V2I, A97S
VL: B2 VL
hCRHR1 Luciferase Reporter Assay IC50 [2]: 1.68 nM

B5: PR302309-16 (antibody, human IgG1, kappa, V domains shown)
VH: B3 VH with V2I, R72L, A97S
VL: B2 VL
hCRHR1 Luciferase Reporter Assay IC50 [2]: 5.47 nM

B6: PR302334-11 (antibody, human IgG1, kappa, V domains shown)
VH: EVQLVESGGGLVQPGGSLRLSCAASGFTFSTYAMSWVRQAPGKGLEWVASIRSGGTTYYPDSVKGRFTISRDNSKNTLYLQMNSLRAEDTAVYYCTRGIDWGQGTTVTVSS
VL: DIQMTQSSLSASVSLGDRVTITCKASQSVNNDVAWYQQKPGKAPRLLIYYASNRYTGVPSRFSGSGSGTDFTFTISSLQPEDIATYYCQQDYSSWTFGGGTKVEIKR
hCRHR1 Luciferase Reporter Assay IC50 [3]: 1 nM

B7: PR302334-26 (antibody, human IgG1, kappa, V domains shown)
VH: B6 VH with T77S
VL: DIVMTQSPDSLAVSLGERATINCKASQSVNNDVAWYQQKPGQPPRLLIYYASNRYTGVPDRFSGSGSGTDFTLTISSLQAEDLAVYFCQQDYSSWTFGGGTKVEIKR
hCRHR1 Luciferase Reporter Assay IC50 [3]: 1.1 nM
mCrhr1 Luciferase Reporter Assay IC50 [3]: 1.34 nM

B8: PR302334-12 (antibody, human IgG1, kappa, V domains shown)
VH: B6 VH
VL: B6 VL with I83L, Y87F
hCRHR1 Luciferase Reporter Assay IC50 [3]: 0.986 nM

B9: PR302334-14 (antibody, human IgG1, kappa, V domains shown)
VH: B6 VH
VL: NIVMTQTPKFLLVSAGDRITITCKASQSVNNDVAWYQQKPGQSPKLLIYYASNRYTGVPDRFTGSGYGTDFTFTISTVQAEDLAVYFCQQDYSSWTFGGGTNLEIKR
hCRHR1 Luciferase Reporter Assay IC50 [3]: 0.468 nM

B10: PR302334-18 (antibody, human IgG1, kappa, V domains shown)
VH: B6 VH with T77S
VL: B9 VL
hCRHR1 Luciferase Reporter Assay IC50 [3]: 0.279 nM

B11: PR302334-16 (antibody, human IgG1, kappa, V domains shown)
VH: B6 VH with Q13K, S74A, T77S
VL: B9 VL
hCRHR1 Luciferase Reporter Assay IC50 [3]: 0.339 nM

B12: PR302334-25 (antibody, human IgG1, kappa, V domains shown)
VH: B6 VH with Q13K, S74A, T77S
VL: B6 VL with I83L, Y87F
hCRHR1 Luciferase Reporter Assay IC50 [3]: 1.7 nM

B13: PR302334-27 (antibody, human IgG1, kappa, V domains shown)
VH: B6 VH with T77S
VL: B6 VL with I83L, Y87F
hCRHR1-Luc 0.5 nM CRH IC50 [3]: 1.36 nM
hCRHR1 Luciferase Reporter Assay IC50 [3]: 1.36 nM
mCrhr1 Luciferase Reporter Assay IC50 [3]: 2.27 nM

B14: PR302334-24 (antibody, human IgG1, kappa, V domains shown)
VH: B6 VH with Q13K, S74A, T77S
VL: B7 VL
hCRHR1 Luciferase Reporter Assay IC50 [3]: 0.778 nM
mCrhr1 Luciferase Reporter Assay IC50 [3]: 1.82 nM

B15: PR302334-15 (antibody, human IgG1, kappa, V domains shown)
VH: B6 VH with Q13K, A49S, S74A, T77S, T96A
VL: B9 VL
hCRHR1 Luciferase Reporter Assay IC50 [3]: 5.12 nM

B16: PR302334-17 (antibody, human IgG1, kappa, V domains shown)
VH: B6 VH with A49S, T77S, T96A
VL: B9 VL
hCRHR1 Luciferase Reporter Assay IC50 [3]: 12.2 nM

B17: PR302334-22 (antibody, human IgG1, kappa, V domains shown)
VH: B6 VH with A49S, T77S, T96A
VL: EIVMTQSPATLSVSPGERATLSCKASQSVNNDVAWYQQKPGQAPRLLIYYASNRYTGIPARFSGSGSGTEFTLTISSLQSEDLAVYFCQQDYSSWTFGGGTKVEIKR
hCRHR1 Luciferase Reporter Assay IC50 [3]: 0.92 nM

B18: PR302309-1 (antibody, human IgG1, kappa, V domains shown)
VH: QIQLVQSGPELKKPGETVKISCKASGYTFTNYGMNWVKQAPGKVLKWMGWINTYTGEPIYTDDFKGRFAFSLETSASTAYLQINNLKNEDTATYFCSRSTMITTGGVFAYWGQGTLVTVSA
VL: DVVMTQSPLSLPVTLGQPASISCRSSQTIVHSDGNTYLEWFQQRPGQSPRRLIYKVSNRFSGVPDRFSGSGSGTDFTLKISRVEAEDVGVYYCFQGSHVPWTFGGGTKVEIKR
hCRHR1 Luciferase Reporter Assay IC50 [2]: 4.42 nM

B19: PR302309-19 (antibody, human IgG1, kappa, V domains shown)
VH: B3 VH with V2I, R72L, A97S
VL: B18 VL with F41Y, R51L, V88L
hCRHR1 Luciferase Reporter Assay IC50 [2]: 4.83 nM

B20: PR302309-8 (antibody, human IgG1, kappa, V domains shown)
VH: B2 VH with V2I, A97S
VL: B18 VL with F41Y, R51L, V88L
hCRHR1 Luciferase Reporter Assay IC50 [2]: 1.7 nM

B21: PR302309-5 (antibody, human IgG1, kappa, V domains shown)
VH: B18 VH
VL: B18 VL with V2I, S7T, L11S, F41L, S48P, R51L, S72A
hCRHR1 Luciferase Reporter Assay IC50 [2]: 0.454 nM

B22: PR302309-17 (antibody, human IgG1, kappa, V domains shown)
VH: B2 VH
VL: B18 VL with F41Y, R51L, V88L
hCRHR1 Luciferase Reporter Assay IC50 [2]: 6.69 nM

B23: PR302309-18 (antibody, human IgG1, kappa, V domains shown)
VH: B3 VH
VL: B18 VL with F41Y, R51L, V88L
hCRHR1 Luciferase Reporter Assay IC50 [2]: 1.73 nM

B24: PR302309-2 (antibody, human IgG1, kappa, V domains shown)
VH: B18 VH
VL: B18 VL with F41Y, R51L, V88L
hCRHR1 Luciferase Reporter Assay IC50 [2]: 0.773 nM

B25: PR302309-10 (antibody, human IgG1, kappa, V domains shown)
VH: B2 VH with V2I, A97S
VL: B2 VL with L3V, A5T, P12S, S14T, L15P, D17Q, Q18P, K50Q, L109V
hCRHR1 Luciferase Reporter Assay IC50 [2]: 3.2 nM

B26: PR302309-12 (antibody, human IgG1, kappa, V domains shown)
VH: B2 VH with V2I, A97S
VL: B18 VL with S7T, L11S, F41Y, S48P, R51L, S72A, V88L
hCRHR1 Luciferase Reporter Assay IC50 [2]: 4.47 nM

B27: PR302309-3 (antibody, human IgG1, kappa, V domains shown)
VH: B18 VH
VL: B18 VL with V2I, S7T, P12S, L15P, F41Y, Q42L, R44K, R50Q, R51L
hCRHR1 Luciferase Reporter Assay IC50 [2]: 2.22 nM

B28: PR302309-9 (antibody, human IgG1, kappa, V domains shown)
VH: B2 VH with V2I, A97S
VL: B18 VL with V2I, S7T, P12S, L15P, F41Y, Q42L, R44K, R50Q, R51L
hCRHR1 Luciferase Reporter Assay IC50 [2]: 6.08 nM

B29: PR302309-6 (antibody, human IgG1, kappa, V domains shown)
VH: B18 VH
VL: B18 VL with S7T, L11S, F41Y, S48P, R51L, S72A, V88L
hCRHR1 Luciferase Reporter Assay IC50 [2]: 1.08 nM

B30: PR302309-11 (antibody, human IgG1, kappa, V domains shown)
VH: B2 VH with V2I, A97S
VL: B18 VL with V2I, S7T, L11S, F41L, S48P, R51L, S72A
hCRHR1 Luciferase Reporter Assay IC50 [2]: 2.12 nM

B31: PR302309-7 (antibody, human IgG1, kappa, V domains shown)
VH: B2 VH with V2I, A97S
VL: B18 VL
hCRHR1 Luciferase Reporter Assay IC50 [2]: 6.38 nM

B32: PR302309-4 (antibody, human IgG1, kappa, V domains shown)
VH: B18 VH
VL: B2 VL with L3V, A5T, P12S, S14T, L15P, D17Q, Q18P, K50Q, L109V
hCRHR1 Luciferase Reporter Assay IC50 [2]: 1.26 nM
